{"source": "patent US20230313203A1", "assay_in_all_cases": "filter", "key": {"[1]": {"molecular_target": "SARS-CoV-2 spike S1 (Wuhan), His-tagged (SARS-CoV-2) (UniProt P0DTC2)"}, "[2]": {"molecular_target": "SARS-CoV-2 spike receptor binding domain (Wuhan) (SARS-CoV-2) (UniProt P0DTC2)"}, "[3]": {"molecular_target": "SARS-CoV-1 spike S1 (SARS-CoV-1) (UniProt P59594)"}, "[4]": {"molecular_target": "SARS-CoV-2 spike S1 (Wuhan), untagged (SARS-CoV-2) (UniProt P0DTC2)"}, "[5]": {"settings": "first 20 nt DNA, rest FANA (T in random region is faU)"}, "[6]": {"settings": "first 20 nt DNA, rest FANA (SEQ ID NO 17)"}, "[7]": {"settings": "first 20 nt DNA, rest FANA (SEQ ID NO 1)"}, "[8]": {"settings": "first 20 nt DNA, rest FANA (SEQ ID NO 3)"}}, "note": "Several values for one entry are separate records, joined by “and”; a condition that tells them apart may be missing. Equal values may be shown once. Read-outs that look alike come from different tables or passages of the source.", "data": [{"sequence": "AAAAGGTAGTGCTGAATTCGATTCTCGATTGATGGCATAAAAAGCATAGAATCGCAAGCAUUCGCUAUCCAGUUGGCCU [FANA-R8-7]", "values": [{"measurement": "Kd", "setting": "[1]; [5]", "result": 31.2, "unit": "nM"}, {"measurement": "Kd", "setting": "[2]; [5]", "result": 62.8, "unit": "nM"}]}, {"sequence": "AAAAGGTAGTGCTGAATTCGCGAGCCCGCAUGAAAAGGGGAGAUAAAAAAUAUCUGUCGAUUCGCUAUCCAGUUGGCCU [FANA-R8-9]", "values": [{"measurement": "Kd", "setting": "[3]", "result": 259, "unit": "nM"}, {"measurement": "Kd", "setting": "[1]", "result": 14.7, "unit": "nM"}, {"measurement": "Kd", "setting": "[4]", "result": 29.6, "unit": "nM"}, {"measurement": "Kd", "setting": "[2]", "result": "23.5 nM and 19.6 nM"}]}, {"sequence": "AAAAGGTAGTGCTGAATTCGCGAGCCCGCAUGAAAAGGGGAGAUAUGCAAUAUCUGUCGAUUCGCUAUCCAGUUGGCCU [FANA-R8-22]", "values": [{"measurement": "Kd", "setting": "[1]; [6]", "result": 13.3, "unit": "nM"}, {"measurement": "Kd", "setting": "[2]; [6]", "result": 21.3, "unit": "nM"}]}, {"sequence": "AAAAGGTAGTGCTGAATTCGGGAGCTCGAACAGATGGGATAAAAAGCATAGCTCACCAATUUCGCUAUCCAGUUGGCCU [FANA-R8-15]", "values": [{"measurement": "Kd", "setting": "[1]; [5]", "result": 27.7, "unit": "nM"}, {"measurement": "Kd", "setting": "[2]; [5]", "result": 43.3, "unit": "nM"}]}, {"sequence": "AAAAGGTAGTGCTGAATTCGGTCGCGATTAACATTAAACCGCATAAAAAGGGTGGCCGGAUUCGCUAUCCAGUUGGCCU [FANA-R8-3]", "values": [{"measurement": "Kd", "setting": "[1]; [5]", "result": 46.4, "unit": "nM"}, {"measurement": "Kd", "setting": "[2]; [5]", "result": 68.1, "unit": "nM"}]}, {"sequence": "AAAAGGTAGTGCTGAATTCGNNNNNNNNNNNNNNNNNNNNNNNNNNNNNNNNNNNNNNNNUUCGCUAUCCAGUUGGCCU [FANA-ST]", "values": [{"measurement": "Kd", "setting": "[2]; first 20 nt DNA, rest 2'-fluoro-arabino (FANA)", "result": 1700, "unit": "nM"}]}, {"sequence": "AAAAGGTAGTGCTGAATTCGUCGAACUAAACCGAAUUGAUGGCAUAAAAAGCAUGUUUAGUUCGCUAUCCAGUUGGCCU [FANA-R8-5]", "values": [{"measurement": "Kd", "setting": "[1]; [7]", "result": 16.6, "unit": "nM"}, {"measurement": "Kd", "setting": "[2]; [7]", "result": 26.4, "unit": "nM"}]}, {"sequence": "AAAAGGTAGTGCTGAATTCGUCGAACUAAUCCGAAUUGAUGGCAUAAAAAGCAUGUUUAGUUCGCUAUCCAGUUGGCCU [FANA-R8-17]", "values": [{"measurement": "Kd", "setting": "[1]; [8]", "result": 19.1, "unit": "nM"}, {"measurement": "Kd", "setting": "[2]; [8]", "result": 29.5, "unit": "nM"}]}]}
